“Also recorded” adds a separate entry of the source.
Columns and labels:
[1] = tested on: AAV-HBV transduced mice; assay: Viral DNA and HBsAg antigen in mouse AAV-HBV model (replicated experiment); assay type: in vivo
[2] = tested on: HBV; assay: AAV-HBV mouse model for chronic HBV infection: viral DNA, HBsAg, anti-HBsAg seroconversion; assay type: in vivo
Procedure: C57BL/6 mice were transduced with AAV8-HBV1.2 vector and sorted into treatment groups (n=10). Animals received 0.5 mg/dose of ASGR1-TLR8-S, 0.5 mg of unconjugated mASGR1 mAb or vehicle, sc QWx5 beginning d0 (black arrows). In FIG. 8A, dotted line is LLOQ for HBsAg ELISA. In FIG. 8B, average plasma anti-HBsAg IgG was determined by ELISA. p-values determined by T-test by comparison to vehicle group.
An in vivo mouse model for chronic HBV to examine the therapeutic effect of ASGR1-TLR8 agonists of the instant disclosure. […] Like TLR8 in humans, and in contrast to TLR7 in humans, TLR7 in mice is expressed in myeloid cells, like macrophages. Thus, for in vivo murine experiments, an anti-ASGR1-TLR7 agonist conjugate was generated as a surrogate for human anti-ASGR1-TLR8 agonist conjugates. In addition, the anti-human ASGR1 antibody 4F3 was “murinized” so as to bind to mouse ASGR1.
On day 0 animals were sorted into viral load-balanced treatment groups of 10. […] The experiment was ended on day 35. Weekly plasma samples were assessed for viral DNA and antigens, including samples from post-transduction (i.e., infection) but pre-treatment. HBV DNA in mouse plasma was isolated with QIAAMP® 96 DNA Blood Kit following the manual and quantified by qPCR. The standard curve DNA of 10^7 copies/μL was prepared by 60-fold dilution of 5 ng/μL pAAV2-HBV1.3 plasmid DNA, then serially diluted 10-fold with AE buffer from 10^7 to 10 copies/μL. A 2 μl volume from samples was added to standard qPCR assay mixtuRes. The PCR mixture and samples or plasmid DNA standard were added to 384-well optical reaction plates. PCR was run at 95° C. for 10 min for 1 cycle, at 95° C. for 15 sec, 60° C. for 1 min for 40 cycles. HBsAg plasma levels were determined by ELISA assay using HBsAg ELISA kit (Autobio) according to the manual.

[3] = Procedure: Throughout the course of this experiment, weekly body weights were obtained for each animal. In addition, the animals were monitored for an increase in ALT enzyme activity as a sign of liver damage. Plasma samples from d0, d7, d21, and d35 were assayed for levels of ALT with ALT Activity Assay Kit (Sigma Chemical Co., MAK052).
[4] = defined from liver payload PK after SC doses
Source text: Subcutaneous (SC) doses assessed are similar to those in FIGS. 6A and 6B. Liver payload PK was used as measure of conjugate uptake.
SC doses assessed are similar to those in FIGS. 6A and 6B. Liver payload PK was used as measure of conjugate uptake.

[5] = tested on: CD19^pos B cells; assay: CD86 on CD19pos B cells after PBMC co-culture (flow cytometry); assay type: cell-based, human; conditions: co-culture of PBMC with ASGR1^pos cells, 10 nM, 24 and 48 hours
Procedure: FIG. 9 is a pair of graphs showing that ASGR1-TLR8 increases B cell expression of CD86, an activation marker indicative of increased antigen presentation and IgG secretion. CD86 levels on CD19^pos B cells were determined by flow cytometry after co-culture of PBMC with ASGR1^pos or ASGR1^neg cells in presence of test articles at 10 nM at 24 hours (left) and 48 hours (right). This ASGR1-TLR8 contains a mouse-human chimeric anti-ASGR1 antibody.
ASGR1-TLR8 conjugate activation increases B-cell expression of CD86, an activation marker indicating increased antigen presentation and IgG secretion. Abbreviations: monoclonal antibody (mAb), positive (pos), negative (neg), mean fluorescence intensity (MFI), hours (hrs). This ASGR1-TLR8 conjugate contains a humanized anti-ASGR1 antibody and has a DAR4.

[6] = tested on: NK cells, CD8+ T cells and CD4+ T cells in human PBMC and ASGR1pos target cell co-culture; assay: IFNγ on NK cells, CD8+ and CD4+ T cells in human PBMC and ASGR1pos target cell co-culture (FACS); assay type: cell-based; conditions: 10 nM, 24 or 48 hours; FIG. 10
Procedure: (§1) Normal human donor PBMCs were co-cultured with cell lines expressing ASGR1 (ASGR1^pos) or not (ASGR1^neg) in the presence of 10 nM of either anti-ASGR1-TLR8 conjugate, the unconjugated antibody, an anti-digoxigenin-TLR8 conjugate or no treatment. After 24 or 48 hours of incubation, cells were harvested and processed for FACS analysis (BD FACSCelesta™ Flow Cytometer) by standard procedures for washing and incubation with immune cell lineage antibodies, that included antibodies to detect levels of cell activation molecules, including anti-IFNγ antibody.

[7] = tested on: B cells in human PBMC and ASGR1pos target cell co-culture; assay: CD86 on CD19pos B cells in human PBMC and ASGR1pos target cell co-culture (FACS); assay type: cell-based; conditions: 10 nM, 24 or 48 hours; FIG. 9 and FIG. 11
Procedure: as §1, with “included anti-CD19 antibody to identify B cells, and” for “included”, “anti-CD86” for “anti-IFNγ”

[8] = 0.5 mg subcutaneous once a week for 5 weeks

B1: ASGR1-TLR8-S: "The surrogate (i.e., murinized ASGR1 mAb-C (having 4F3 CDRs)-IgG2a conjugated to a TLR7 agonist Compound 4.1)" (conjugate)
heavy: EVKLVESGGGLVKPGGSLKLSCAASGFTFSSYAMSWVRQTPEKRLEWVSAISGSGGSTYYADSVKGRFTISRDNAKNTLYLQMSSLRSEDTAMYYCAKDFSSRRWYLEYWGQGTTLTVSSAKTTAPSVYPLAPVCGDTTGSSVTLGCLVKGYFPEPVTLTWNSGSLSSGVHTFPAVLQSDLYTLSSSVTVTSSTWPSQSITCNVAHPASSTKVDKKIEPRGPTIKPCPPCKCPAPNLLGGPSVFIFPPKIKDVLMISLSPIVTCVVVDVSEDDPDVQISWFVNNVEVHTAQTQTHREDYNSTLRVVSALPIQHQDWMSGKEFKCKVNNKDLPAPIERTISKPKGSVRAPQVYVLPPPEEEMTKKQVTLTCMVTDFMPEDIYVEWTNNGKTELNYKNTEPVLDSDGSYFMYSKLRVEKKNWVERNSYSCSVVHEGLHNHHTTKSFSRTPGK
light: QAVLTQEPALSVSLGQTVTLTCQGDSLRSYYASWYQQKPGQAPVLVIYGKNNRPSGVPARFSGSLIGDKAALTITGAQTEDEAIYYCNSLERIGYLSYVFGGGTKVTVLRADAAPTVSIFPPSSEQLTSGGASVVCFLNNFYPKDINVKWKIDGSERQNGVLNSWTDQDSKDSTYSMSSTLTLTKDEYERHNSYTCEATHKTSTSPIVKSFNRNEC
modifications: conjugated to TLR7 agonist Compound 4.1; Synthetic sequence mzASGR1 mAb-C Heavy Chain (VH-IgG2a); Synthetic sequence mzASGR1 mAb-C Light Chain (VL-kappa)
- HBsAg antigen ([1]; FIG. 8A): significantly lowered
- viral DNA ([1]; data not shown): significantly lowered
- HBsAg antigen in plasma [2, 8]: significantly lowered; also recorded: reduces
- Viral DNA in plasma [2, 8]: significantly lowered
- Anti-HBsAg seroconversion ([2]; 0.5 mg/dose sc QWx5): drives seroconversion
- Body weight [3, 8]: gained weight like control animals
- ALT enzyme activity ([3]; plasma d0, d7, d21, d35): no increase

B2: ASGR1-S: a mouse conjugate surrogate for an ASGR1-TLR8 conjugate intended for therapeutic use in a human (conjugate)
heavy: B1 heavy
light: B1 light
modifications: conjugated to TLR agonist Compound 4.1; Synthetic sequence mzASGR1 mAb-C Heavy Chain (VH-IgG2a); Synthetic sequence mzASGR1 mAb-C Light Chain (VL-kappa)
notes: a mouse conjugate surrogate for an ASGR1-TLR8 conjugate intended for therapeutic use in a human
- Target payload liver concentration [4]: approximately 100 ng/g
- Seroconversion in the AAV-HBV model ([2]; at 5 mg/kg and 10 mg/kg): observed in some animals

B3: ASGR1-TLR8: This ASGR1-TLR8 contains a mouse-human chimeric anti-ASGR1 antibody (conjugate)
heavy: B1 heavy
light: B1 light
modifications: TLR8 agonist conjugated; Synthetic sequence mzASGR1 mAb-C Heavy Chain (VH-IgG2a); Synthetic sequence mzASGR1 mAb-C Light Chain (VL-kappa)
notes: This ASGR1-TLR8 contains a mouse-human chimeric anti-ASGR1 antibody
- B cell expression of CD86 [5]: increases
- levels of IFNγ on NK cells, CD8+ T cells and CD4+ T cells (MFI) [6]: drives an IFNγ response
- levels of CD86 on CD19pos cells (MFI) [7]: B cells were activated
